Assay results published in article doi:10.1101/2023.06.13.544671.

Biological target: RSC chromatin remodeling complex with Sth1-3xFlag-HaloTag (S. cerevisiae) (UniProt P32597)
Test: two-colour single-molecule colocalisation on DNA (optical tweezers with confocal microscopy); RSC-JFX554 with ISW2-JFX650, or RSC-JFX554 with RSC-JFX650, diffusing on naked lambda DNA stretched to 5 pN; 10 mM Tris pH 7.4, 50 mM KCl, 3 mM MgCl2, 0.1 mg/ml BSA, Trolox; colocalisation threshold 0.31 um (RSC-RSC) and 0.29 um (RSC-ISW2); single exponential fits of dwell times

| half-life of long colocalisation with co-diffusion, on DNA | Substance |
| --- | --- |
| 0.68 s | ISW2 chromatin remodeling complex with Isw2-3xFlag-HaloTag (from UniProt Q08773 1-1120) |
| 0.7 s | RSC chromatin remodeling complex with Sth1-3xFlag-HaloTag (from UniProt P32597 1-1359) |
